Tests used:
HLA-A*02:01 [1] = target: T1, HLA-A*02:01 (Homo sapiens, UniProt P04439, D140Y/D185E/D98H/E176V/E277Q/G131W/G231S/I119V/I121R/I166T/I218V/L300P/L318F/N151K/N90K/P208A/P217A/Q86G/Q94H/R138H/R169H/T345S); assay: MHC binding assay: UV-ligand exchange with β2m ELISA (peptide exchange yield); conditions: binding to HLA-A*02:01 evaluated by peptide exchange yield (UV-ligand exchange, β2m ELISA)
T1 construct: made in house
Procedure, shortened: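 UV-exchange pMHC monomers, 100-fold diluted → streptavidin capture 1 h 37 °C → HRP anti-β2m 2 ug/ml 1 h 37 °C → TMB, A450. Yield from HLA-A*02:01/MLA-001 monomer standard curve, 15-500 ng/ml. Only stably bound peptides keep β2m-containing complexes intact.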

[2] = test system: CD8+ T cells of healthy HLA-A*02 donors; assay: In vitro immunogenicity: T-cell priming with aAPCs loaded with peptide/MHC and anti-CD28, pMHC multimer readout; type: cell-based, human; conditions: in vitro immunogenicity, HLA-A*02 restricted peptides; percentage of positive wells among evaluable
From the text: In order to obtain information regarding the immunogenicity of the TUMAPs of the present invention, the inventors performed investigations using an in vitro T-cell priming assay based on repeated stimulations of CD8+ T cells with artificial antigen presenting cells (aAPCs) loaded with peptide/MHC complexes and anti-CD28 antibody.
In order to perform in vitro stimulations by artificial antigen presenting cells loaded with peptide-MHC complex (pMHC) and anti-CD28 antibody, the inventors first isolated CD8+ T cells from fresh HLA-A*02 leukapheresis products via positive selection using CD8 microbeads (Miltenyi Biotec, Bergisch-Gladbach, Germany) of healthy donors obtained from the University clinics Mannheim, Germany, after informed consent. PBMCs and isolated CD8+ lymphocytes were incubated in T-cell medium (TCM) until use consisting of RPMI-Glutamax (Invitrogen, Karlsruhe, Germany) supplemented with 10% heat inactivated human AB serum (PAN-Biotech, Aidenbach, Germany), 100 U/ml Penicillin/100 μg/ml Streptomycin (Cambrex, Cologne, Germany), 1 mM sodium pyruvate (CC Pro, Oberdorla, Germany), 20 μg/ml Gentamycin (Cambrex). 2.5 ng/ml IL-7 (PromoCell, Heidelberg, Germany) and 10 U/ml IL-2 (Novartis Pharma, Nürnberg, Germany) were also added to the TCM at this step. Generation of pMHC/anti-CD28 coated beads, T-cell stimulations and readout was performed in a highly defined in vitro system using four different pMHC molecules per stimulation condition and 8 different pMHC molecules per readout condition.
The purified co-stimulatory mouse IgG2a anti human CD28 Ab 9.3 (Jung et al., 1987) was chemically biotinylated using Sulfo-N-hydroxysuccinimidobiotin as recommended by the manufacturer (Perbio, Bonn, Germany). Beads used were 5.6 μm diameter streptavidin coated polystyrene particles (Bangs Laboratories, Illinois, USA).
pMHC used for positive and negative control stimulations were A*0201/MLA-001 (peptide […] (SEQ ID NO. 289) from modified Melan-A/MART-1) and A*0201/DDX5-001 ([…] from DDX5, SEQ ID NO. 290), respectively.
800.000 beads/200 μl were coated in 96-well plates in the presence of 4×12.5 ng different biotin-pMHC, washed and 600 ng biotin anti-CD28 were added subsequently in a volume of 200 μl. Stimulations were initiated in 96-well plates by co-incubating […] CD8+ T cells with 2×10^5 washed coated beads in 200 μl TCM supplemented with 5 ng/ml IL-12 (PromoCell) for 3 days at 37° C. Half of the medium was then exchanged by fresh TCM supplemented with 80 U/ml IL-2 and incubating was continued for 4 days at 37° C. This stimulation cycle was performed for a total of three times. For the pMHC multimer readout using 8 different pMHC molecules per condition, a two-dimensional combinatorial coding approach was used as previously described (Andersen et al., 2012) with minor modifications encompassing coupling to 5 different fluorochromes. Finally, multimeric analyses were performed by staining the cells with Live/dead near IR dye (Invitrogen, Karlsruhe, Germany), CD8-FITC antibody clone SK1 (BD, Heidelberg, Germany) and fluorescent pMHC multimers. For analysis, a BD LSRII SORP cytometer equipped with appropriate lasers and filters was used. Peptide specific cells were calculated as percentage of total CD8+ cells. Evaluation of multimeric analysis was done using the FlowJo software (Tree Star, Oreg., USA). In vitro priming of specific multimer+ CD8+ lymphocytes was detected by comparing to negative control stimulations.
Exemplary flow cytometry results after TUMAP-specific multimer staining for 15 peptides of the invention are shown in FIGS. 3 and 6 together with corresponding negative controls.

HLA-A*02:01 [3] = target: T2, HLA-A*02:01 (human); assay: UV ligand-exchange ELISA (anti-b2m); ++++ = exchange yield >=75%
T2 construct: MHC monomers captured on streptavidin plates; the UV-sensitive peptide is cleaved and exchanged with the test peptide; also called peptide-receptive MHC molecules; MHC class I
From the text: (§1) Candidate peptides for T cell based therapies according to the present invention were further tested for their MHC binding capacity (affinity). The individual peptide-MHC complexes were produced by UV-ligand exchange, where a UV-sensitive peptide is cleaved upon UV-irradiation, and exchanged with the peptide of interest as analyzed. Only peptide candidates that can effectively bind and stabilize the peptide-receptive MHC molecules prevent dissociation of the MHC complexes. To determine the yield of the exchange reaction, an ELISA was performed based on the detection of the light chain (β2m) of stabilized MHC complexes. The assay was performed as generally described in Rodenko et al. (Rodenko et al., 2006).
(§2) 96 well MAXISorp plates (NUNC) were coated over night with 2 ug/ml streptavidin in PBS at room temperature, washed 4× and blocked for 1 h at 37° C. in 2% BSA containing blocking buffer. Refolded HLA-A*02:01/MLA-001 monomers served as standards, covering the range of 15-500 ng/ml. Peptide-MHC monomers of the UV-exchange reaction were diluted 100 fold in blocking buffer. Samples were incubated for 1 h at 37° C., washed four times, incubated with 2 ug/ml HRP conjugated anti-β2m for 1 h at 37° C., washed again and detected with TMB solution that is stopped with […]. Absorption was measured at 450 nm. Candidate peptides that show a high exchange yield (preferably higher than 50%, most preferred higher than 75%) are generally preferred for a generation and production of antibodies or fragments thereof, and/or T cell receptors or fragments thereof, as they show sufficient avidity to the MHC molecules and prevent dissociation of the MHC complexes.

HLA-A*02:01 [4] = target: T2, HLA-A*02:01; assay: UV ligand-exchange ELISA (anti-b2m); + = exchange yield >=10%
From the text: as §1, §2

Peptide exchange (HLA-A*02:01 [1])	peptide exchange yield (HLA-A*02:01 [3]) [%]	peptide exchange yield (HLA-A*02:01 [4]) [%]	Molecule	Wells positive [%] [2]
+++ (≧50 = +++)	–	–	251 (LLWGNLPEI; listed as Homo sapiens) [compound 251]	++ (20%-49% = ++)
+++ (≧50 = +++)	–	–	253 (KLLAVIHEL; listed as Homo sapiens) [compound 253]	++ (20%-49% = ++)
++ (≧20% = ++)	–	–	254 (ALGDKFLLRV; listed as Homo sapiens) [compound 254]	+ (<20% = +)
+++ (≧50 = +++)	–	–	255 (FLMKNSDLYGA; listed as Homo sapiens) [compound 255]	+ (<20% = +)
+++ (≧50 = +++)	–	–	257 (KLIDHQGLYL; listed as Homo sapiens) [compound 257]	+ (<20% = +)
+++ (≧50 = +++)	–	–	260 (ALNESLVEC; listed as Homo sapiens) [compound 260]	+ (<20% = +)
+++ (≧50 = +++)	–	–	261 (GLAALAVHL; listed as Homo sapiens) [compound 261]	++ (20%-49% = ++)
+++ (≧50 = +++)	–	–	263 (SIIEYLPTL; listed as Homo sapiens) [compound 263]	+ (<20% = +)
++ (≧20% = ++)	–	–	264 (TLHDQVHLL; listed as Homo sapiens) [compound 264]	+ (<20% = +)
+++ (≧50 = +++)	–	–	267 (YLLDMPLWYL; listed as Homo sapiens) [compound 267]	+ (<20% = +)
++ (≧20% = ++)	–	–	275 (AVPPPPSSV; listed as Homo sapiens) [compound 275]	++ (20%-49% = ++)
–	≥ 75	–	RLFEEVLGV	–
–	≥ 75	–	VLLNEILEQV	–
–	–	10 to 20	GPGIFPPPPPQP	–
–	≥ 75	–	FLNAIETAL	–
–	≥ 75	–	KLQEKIQEL	–
–	–	10 to 20	AQHLSTLLL	–
–	≥ 75	–	GLLPSAESIKL	–
–	–	10 to 20	SEMEELPSV	–
–	≥ 75	–	NLLDENVCL	–
–	≥ 75	–	SLVSWQLLL	–
–	≥ 75	–	GLLDCPIFL	–
–	≥ 75	–	FLLEREQLL	–
–	≥ 75	–	GLDAFRIFL	–
–	–	10 to 20	QTAPEEAFIKL	–
